B1: Zinc finger protein ZFPM1 (Mus musculus), O35615 (parent)
chain: MSRRKQSNPRQIKRSLRDMEAGEEAKAMDSSPKEQEAPDPEAPAIEEPPSPPREDVSPPAVPAPPESPEDPEDMEGQELEMRPQDEEKEEKEEEAAMASPWSGPEELELALQDGQRCVRARLSLTEGLSWGPFYGSIQTRALSPEREEPGPAVTLMVDESCWLRMLPQVLTEEAANSEIYRKDDALWCRVTKVVPSGGLLYVRLVTEPHGAPRHPVQEPVEPGGLAPVHTDIQLLPQQAGMASILATAVINKDVFPCKDCGIWYRSERNLQAHLLYYCASRQRAGSPVSATEEKPKETYPNERVCPFPQCRKSCPSASSLEIHMRSHSGERPFVCLICLSAFTTKANCERHLKVHTDTLSGVCHNCGFISTTRDILYSHLVTNHMVCQPGSKGEIYSPGAGHPAAKLPPDSLAGFQQHSLMHSPLVPADKAPTPSSGLDSKAEVTNGETRVPPQNGGSSESPAAPRTIKVEAAEEPEATRASGPGEPGPQAPSRTPSPHSPNPVRVKTELSSPTPGSSPGPGELTMAGTLFLPQYVFSPDAGTTTVPTAPQASEILAKMSELVHNRLQQGAGSSGAAGTPTGLFSGTKGATCFECEITFNNINNFYVHKRLYCSGRRAPEDPPTVRRPKAATGPARAPAGAAAEPDPSRSSPGPGPREEEASGTTTPEAEAAGRGSEGSQSPGSSVDDAEDDPSRTLCEACNIRFSRHETYTVHKRYYCASRHDPPPRRPPAPTTAPGPAAPALTAPPVRTRRRRKLYELPAAGAPPPAAGPAPVPVVPSPTAELPSSPRPGSASAGPAPALSPSPVPDGPIDLSKRPRRQSPDAPTALPALADYHECTACRVSFHSLEAYLAHKKYSCPAAPLRTTALCPYCPPNGRVRGDLVEHLRQAHGLQVAKPAASPGAEPRTPAERAPRDSPDGRAPRSPSPAPENTPSDPADQGARTPSKGPPAPAPAPGGGGGHRYCRLCNIRFSSLSTFIAHKKYYCSSHAAEHVK
partner: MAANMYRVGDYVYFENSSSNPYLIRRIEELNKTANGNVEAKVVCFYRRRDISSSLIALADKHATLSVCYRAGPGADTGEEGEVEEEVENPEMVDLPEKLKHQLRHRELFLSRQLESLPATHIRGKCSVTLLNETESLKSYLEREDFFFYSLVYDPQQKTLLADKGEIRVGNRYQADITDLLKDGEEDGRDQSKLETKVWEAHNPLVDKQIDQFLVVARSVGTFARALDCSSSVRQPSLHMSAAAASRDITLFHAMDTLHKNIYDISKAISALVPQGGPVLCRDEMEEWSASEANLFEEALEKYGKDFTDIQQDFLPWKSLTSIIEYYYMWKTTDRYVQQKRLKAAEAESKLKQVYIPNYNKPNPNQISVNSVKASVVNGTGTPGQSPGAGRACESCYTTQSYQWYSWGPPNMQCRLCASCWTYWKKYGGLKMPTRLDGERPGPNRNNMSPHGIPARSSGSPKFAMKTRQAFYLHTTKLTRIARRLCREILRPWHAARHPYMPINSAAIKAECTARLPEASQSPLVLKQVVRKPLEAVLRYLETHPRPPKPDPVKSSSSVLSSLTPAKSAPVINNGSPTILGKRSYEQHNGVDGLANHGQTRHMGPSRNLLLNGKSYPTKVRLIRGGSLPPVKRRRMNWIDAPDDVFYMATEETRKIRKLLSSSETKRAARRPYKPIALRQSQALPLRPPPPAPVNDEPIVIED

Variants of: B1
Settings: with mta1_rat Mta1, Q62599

| effect of a mutation on the interaction | Variant |
| --- | --- |
| disrupting interaction | K5A |
| disrupting interaction | R3A |
